Here are results for 3 variants from FireProtDB (doi:10.1021/bi035651x).

B1: Adenosine deaminase, P03958 (parent)
chain: MAQTPAFNKPKVELHVHLDGAIKPETILYFGKKRGIALPADTVEELRNIIGMDKPLSLPGFLAKFDYYMPVIAGCREAIKRIAYEFVEMKAKEGVVYVEVRYSPHLLANSKVDPMPWNQTEGDVTPDDVVDLVNQGLQEGEQAFGIKVRSILCCMRHQPSWSLEVLELCKKYNQKTVVAMDLAGDETIEGSSLFPGHVEAYEGAVKNGIHRTVHAGEVGSPEVVREAVDILKTERVGHGYHTIEDEALYNRLLKENMHFEVCPWSSYLTGAWDPKTTHAVVRFKNDKANYSLNTDDPLIFKSTLDTDYQMTKKDMGFTEEEFKRLNINAAKSSFLPEEEKKELLERLYREYQ

Several values for one entry are separate records, joined by “and”; a condition that tells them apart may be missing. Identical values can stand only once.

Variants of B1 are the subject of this data set. The following applies: Mus musculus; pH 7.4; 20 °C; Urea; NMR; Tris-HCl 20 mM; structure 2ADA; whole UniProt chain shown.

In the case of W272F, the denaturant m value was 1.05 kcal/mol/M and 2.25 kcal/mol/M; the “denaturant midpoint (higher = more stable)” value (“denaturant midpoint” for short) was 5.42 M and 5.58 M; the unfolding free energy is 5.69 kcal/mol and 12.6 kcal/mol.

On to W117F, for which the “ddG of mutation (higher = less stable)” value was -2.96 kcal/mol and -6.52 kcal/mol; the denaturant m value was 1.31 kcal/mol/M and 1.96 kcal/mol/M; the “denaturant midpoint” value was 5.65 M and 5.59 M; the unfolding free energy is 7.4 kcal/mol and 11 kcal/mol.

For W161F, the “ddG of mutation (higher = less stable)” value is -8.7 kcal/mol and -5.98 kcal/mol; the denaturant m value was 2.48 kcal/mol/M and 1.87 kcal/mol/M; the “denaturant midpoint” value is 5.3 M and 5.57 M; the unfolding free energy is 13.1 kcal/mol and 10.4 kcal/mol.
